Data published in patent US20240376225A1 (CHILDREN S MEDICAL CENTER, published 2024).
Like-named read-outs stand apart in the source and are kept apart here.

T1: human CD21 protein (human, UniProt P20023 21-971, limits assumed)
T1 construct: the Biacore set-up is not described; also called huCD21; CR2
T1 sequence (looked up): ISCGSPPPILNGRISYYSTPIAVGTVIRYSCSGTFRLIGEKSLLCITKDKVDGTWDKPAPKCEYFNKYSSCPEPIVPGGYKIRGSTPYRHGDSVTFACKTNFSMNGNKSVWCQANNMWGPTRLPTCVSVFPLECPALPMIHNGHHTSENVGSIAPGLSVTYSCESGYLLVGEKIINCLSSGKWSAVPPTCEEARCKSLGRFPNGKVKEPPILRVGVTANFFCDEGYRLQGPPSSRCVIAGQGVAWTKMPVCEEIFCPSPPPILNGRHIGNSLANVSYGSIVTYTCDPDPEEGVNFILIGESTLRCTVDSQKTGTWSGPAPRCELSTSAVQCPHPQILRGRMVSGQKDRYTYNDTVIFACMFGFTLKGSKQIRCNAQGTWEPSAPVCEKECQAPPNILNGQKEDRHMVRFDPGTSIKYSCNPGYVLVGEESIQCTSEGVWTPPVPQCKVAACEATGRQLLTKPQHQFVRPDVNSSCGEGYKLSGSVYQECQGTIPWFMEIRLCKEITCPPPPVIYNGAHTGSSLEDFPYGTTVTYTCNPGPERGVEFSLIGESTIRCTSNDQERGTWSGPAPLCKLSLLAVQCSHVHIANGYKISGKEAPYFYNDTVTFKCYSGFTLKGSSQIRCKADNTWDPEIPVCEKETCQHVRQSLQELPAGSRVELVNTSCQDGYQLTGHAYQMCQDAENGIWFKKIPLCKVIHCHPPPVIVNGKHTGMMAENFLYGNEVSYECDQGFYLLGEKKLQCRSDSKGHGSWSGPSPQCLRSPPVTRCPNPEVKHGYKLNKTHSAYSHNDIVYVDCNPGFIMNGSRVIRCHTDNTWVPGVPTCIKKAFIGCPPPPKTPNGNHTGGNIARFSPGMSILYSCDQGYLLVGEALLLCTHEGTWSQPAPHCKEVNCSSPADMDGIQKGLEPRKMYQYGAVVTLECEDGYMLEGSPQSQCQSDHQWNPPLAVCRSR

T2: human CD21 on Raji B cells or primary B cells (human, UniProt P20023 21-1033)
T2 sequence (looked up): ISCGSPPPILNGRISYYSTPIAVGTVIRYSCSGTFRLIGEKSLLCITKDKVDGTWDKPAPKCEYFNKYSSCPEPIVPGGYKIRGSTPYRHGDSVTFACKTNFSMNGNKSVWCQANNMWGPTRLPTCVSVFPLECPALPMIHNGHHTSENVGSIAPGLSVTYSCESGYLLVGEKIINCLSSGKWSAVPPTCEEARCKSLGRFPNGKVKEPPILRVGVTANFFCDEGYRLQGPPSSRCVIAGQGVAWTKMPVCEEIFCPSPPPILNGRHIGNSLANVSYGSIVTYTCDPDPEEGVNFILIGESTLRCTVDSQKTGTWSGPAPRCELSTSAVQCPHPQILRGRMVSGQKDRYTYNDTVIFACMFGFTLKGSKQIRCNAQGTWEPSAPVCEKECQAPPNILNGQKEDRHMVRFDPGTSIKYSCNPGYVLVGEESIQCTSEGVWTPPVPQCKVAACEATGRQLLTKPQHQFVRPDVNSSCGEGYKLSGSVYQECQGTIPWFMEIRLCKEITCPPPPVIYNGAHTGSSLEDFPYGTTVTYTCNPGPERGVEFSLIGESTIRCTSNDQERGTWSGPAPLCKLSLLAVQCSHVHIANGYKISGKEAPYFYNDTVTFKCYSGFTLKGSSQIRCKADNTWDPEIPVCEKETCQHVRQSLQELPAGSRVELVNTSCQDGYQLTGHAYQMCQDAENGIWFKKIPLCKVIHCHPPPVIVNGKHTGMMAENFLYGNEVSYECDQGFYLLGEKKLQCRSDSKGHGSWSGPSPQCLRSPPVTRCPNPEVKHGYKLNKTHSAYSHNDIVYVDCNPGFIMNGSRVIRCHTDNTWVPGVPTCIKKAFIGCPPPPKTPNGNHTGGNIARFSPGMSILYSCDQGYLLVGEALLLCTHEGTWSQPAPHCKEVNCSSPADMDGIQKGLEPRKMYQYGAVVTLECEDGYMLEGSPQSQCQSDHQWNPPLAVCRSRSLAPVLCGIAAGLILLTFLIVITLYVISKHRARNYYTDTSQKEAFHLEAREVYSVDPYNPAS


How the values were obtained:
[1] = biological target: cyno CD21 protein (cynomolgus monkey); assay: affinity KD; method not restated (Biacore elsewhere)
[2] = biological target: cyno CD21 protein (cynomolgus monkey); assay: SPR (Biacore), KD against Ab89
[3] = biological target: cyno CD21 protein (cynomolgus monkey); assay: SPR (Biacore)
human CD21 protein [4] = biological target: T1, human CD21 protein; assay: SPR (Biacore), KD against Ab89
human CD21 protein [5] = biological target: T1, human CD21 protein; assay: SPR (Biacore)
human CD21 protein [6] = biological target: T1, human CD21 protein; assay: SPR (Biacore); remark: listed apart in the source
[7] = biological target: T2, human CD21 on Raji B cells or primary B …; assay: cell-based or functional assay
human CD21 protein [8] = biological target: T1, human CD21 protein; assay: affinity KD; method not restated (Biacore elsewhere)
insulin = insulin (UniProt P01308); assay: polyreactivity ELISA on coated insulin; third number of the cell
Chain of insulin (P01308 25-54 limits assumed, chain 1 of 2): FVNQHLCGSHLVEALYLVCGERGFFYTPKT
Chain of insulin (P01308 90-110 limits assumed, chain 2 of 2): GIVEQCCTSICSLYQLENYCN

[9] = biological target: T2, human CD21 on Raji B cells or primary B …; assay: cell-based or functional assay; remark: listed apart in the source
[10] = biological target: cyno CD21 protein (cynomolgus monkey); assay: SPR (Biacore); remark: listed apart in the source
human CD21 protein [11] = biological target: T1, human CD21 protein; assay: SPR (Biacore); remark: listed apart in the source
[12] = biological target: T2, human CD21 on Raji B cells or primary B …; assay: competition with human C3d on Raji B cells
[13] = biological target: T2, human CD21 on Raji B cells or primary B …; assay: competition with human C3d on primary B cells
[14] = biological target: T2, human CD21 on Raji B cells or primary B …; assay: Raji B cell binding
human CD21 protein [15] = biological target: T1, human CD21 protein; assay: affinity KD; method not restated (Biacore elsewhere); remark: listed apart in the source

Kd [1] [nM] | fold affinity improvement over parental Ab89 [2] [fold] | Kd [3] [nM] | fold affinity improvement over parental Ab89 (human CD21 protein [4]) [fold] | Kd (human CD21 protein [5]) [nM] | Kd (human CD21 protein [6]) [nM] | pAKT inhibition, IC50, nM; Primary B cells [7] [nM] | pAKT inhibition, IC50, nM; Raji B cells [7] [nM] | Kd (human CD21 protein [8]) [nM] | insulin-binding score (ratio to buffer well) (insulin) | pAKT inhibition, IC50, nM; Primary B cells [9] [nM] | pAKT inhibition, IC50, nM; Raji B cells [9] [nM] | Kd [10] [nM] | Kd (human CD21 protein [11]) [nM] | IC50 [12] [nM] | IC50 [13] [nM] | EC50 [14] [nM] | Kd (human CD21 protein [15]) [nM] | Binder
0.23 | 92 | 0.233 | 1780 | 0.0399 | 0.039 | 7.94 | 14.9 | 0.039 | 2 | 7.94 | 14.9 | 0.23 | – | – | – | – | – | Ab423 (antibody, human IgG1, kappa, V domains shown, IgG1) VH: QVQLVQSGAEVKKPGSSVKVSCKASGGTFSSYAISWVRQAPGQGLEWMGRIIPILGIANYAQKFQGRVTITADKSTSTAYMELSSLRSEDTAVYYCAREDDISGYYQDWGQGTLVTVSS VL: EIVMTQSPATLSVSPGERATLSCRAGQSINSYLAWYQQKPGQAPRLLIYDASTRATGIPARFSGSGSGTEFTLTISSLQSEDFAVYYCQQYEYWYTFGQGTKLEIKR
– | – | 21.4 | – | – | – | – | – | – | – | – | – | – | 71.1 | 2.13 | 1.22 | 6.37 | – | Ab89 (antibody, human IgG1, kappa, V domains shown, IgG1; also called germlined derivative of Ab15) VH: QVQLVQSGAEVKKPGSSVKVSCKASGGTFSSYAISWVRQAPGQGLEWMGRIIPILGIANYAQKFQGRVTITADKSTSTAYMELSSLRSEDTAVYYCAREDDSSGYYQDWGQGTLVTVSS VL: EIVMTQSPATLSVSPGERATLSCRAGQSINSHLAWYQQKPGQAPRLLIYDASTRATGIPARFSGSGSGTEFTLTISSLQSEDFAVYYCQQYEYWYTFGQGTKLEIKR
0.15 | – | – | – | – | – | – | – | 0.01 | 1 | – | – | – | – | – | – | – | 0.01 | Ab648 (antibody, human IgG1, kappa, V domains shown, IgG1) VH: QVQLVQSGAEVKKPGSSVKVSCKASGGELSTYAISWVRQAPGQGLEWMGRIIPILGIANYAQKFQGRVTITADKSTSTAYMELSSLRSEDTAVYYCAREEDISGYYQDWGQGTLVTVSS VL: EIVMTQSPATLSVSPGERATLSCRAGQSISSYLAWYQQKPGQAPRLLIYDASSRATGIPARFSGSGSGTEFTLTISSLQSEDFAVYYCQQYEYWYSFGQGTKLEIKR
